Consider one molecule from PMC12238530, “Dynamic SAS-6 phosphorylation aids centrosome duplication and elimination in C. elegans oogenesis” (EMBO Reports, 2025).

In test [1] the target is T1, GST-SAS-6(∆N) (C. elegans, UniProt O62479 171-492).
T1 construct: SAS-6, C. elegans, N-terminal head domain deleted (∆1–170), so residues 171-492; also called GST-SAS-6-ΔN; source: E. coli BL21 (DE3), purified (Glutathione Sepharose 4B); not shown: GST, N-terminal, kept
T1 sequence (looked up): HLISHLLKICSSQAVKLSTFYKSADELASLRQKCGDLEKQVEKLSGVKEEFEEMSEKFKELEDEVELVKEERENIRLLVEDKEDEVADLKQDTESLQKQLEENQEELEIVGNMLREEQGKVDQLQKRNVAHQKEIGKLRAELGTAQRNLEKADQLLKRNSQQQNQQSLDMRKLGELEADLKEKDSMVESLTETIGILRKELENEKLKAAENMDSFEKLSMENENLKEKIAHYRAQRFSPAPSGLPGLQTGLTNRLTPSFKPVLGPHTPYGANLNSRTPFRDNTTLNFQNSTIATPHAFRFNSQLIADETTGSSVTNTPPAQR
As to the kind of experiment: bead recruitment assay; GST-SAS-6 FL or truncations coupled to agarose beads; recruitment of mCherry-His tagged SAS-6 C-terminus seen by fluorescence (Fig. 5B, 5E). The conditions noted are these: both partners purified.

Test [2] concerns the target T2, GST-SAS-6 full-length (FL) (C. elegans, UniProt O62479 1-492).
T2 construct: SAS-6, C. elegans, full length (1-492); pGEX6P1-GST vector; also called full-length SAS-6 coupled to beads; source: E. coli BL21 (DE3), purified (Glutathione Sepharose 4B); not shown: GST, N-terminal, kept
T2 sequence (looked up): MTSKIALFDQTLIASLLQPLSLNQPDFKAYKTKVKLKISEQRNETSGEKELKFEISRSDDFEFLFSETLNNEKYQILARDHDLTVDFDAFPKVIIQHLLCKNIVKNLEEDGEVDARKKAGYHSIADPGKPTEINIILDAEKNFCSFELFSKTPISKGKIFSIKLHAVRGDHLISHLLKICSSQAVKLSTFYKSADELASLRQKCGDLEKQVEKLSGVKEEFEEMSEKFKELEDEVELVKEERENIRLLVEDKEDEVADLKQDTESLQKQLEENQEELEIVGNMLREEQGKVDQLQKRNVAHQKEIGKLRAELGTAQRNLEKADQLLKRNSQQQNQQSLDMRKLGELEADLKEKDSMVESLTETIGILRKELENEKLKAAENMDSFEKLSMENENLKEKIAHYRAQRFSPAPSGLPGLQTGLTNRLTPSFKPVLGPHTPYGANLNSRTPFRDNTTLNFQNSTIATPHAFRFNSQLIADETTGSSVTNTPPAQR
As to the kind of experiment: pull-down; GST pulldown of purified His-tagged SAS-6 proteins by purified GST-SAS-6 FL or truncations, with or without pre-phosphorylation by CDK1; α-His immunoblot and CBB staining (Fig. 5A, 5C, 5D). The settings on record: both partners purified. (In general: In western blotting, separated proteins are transferred to a membrane and probed.)

B1: SAS-6-C-mCherry-His (domain or fragment, C. elegans, UniProt O62479 401-492, looked up)
chain: HYRAQRFSPAPSGLPGLQTGLTNRLTPSFKPVLGPHTPYGANLNSRTPFRDNTTLNFQNSTIATPHAFRFNSQLIADETTGSSVTNTPPAQR
notes: SAS-6, C. elegans, C-terminal unstructured region, residues 401-492; Cloned in pET.28a-mCherry; the primer's vector part encodes LFQGP before the NdeI site, so a further N-terminal tag may be there; also called mCherry-His tagged SAS-6 C-terminus; SAS-6 C-terminus; source: E. coli BL21 (DE3), purified (Ni-NTA); not shown: mCherry, C-terminal, kept; His, C-terminal, kept
Turning to B1, the binding result in test [1] and in test [2] was “binds” each time.
